Patent US20070212686A1 (WHITEHEAD INSTITUTE FOR BIOMEDICAL RESEARCH, published 2007)

T1: bacterial-expressed 3'Flag-Acrp30 (full length) (murine, UniProt Q60994 18-247)
T1 construct: The bacterial construct is not described; also called Full Length Acrp; bacterial expressed Flag-tagged full-length
T1 sequence: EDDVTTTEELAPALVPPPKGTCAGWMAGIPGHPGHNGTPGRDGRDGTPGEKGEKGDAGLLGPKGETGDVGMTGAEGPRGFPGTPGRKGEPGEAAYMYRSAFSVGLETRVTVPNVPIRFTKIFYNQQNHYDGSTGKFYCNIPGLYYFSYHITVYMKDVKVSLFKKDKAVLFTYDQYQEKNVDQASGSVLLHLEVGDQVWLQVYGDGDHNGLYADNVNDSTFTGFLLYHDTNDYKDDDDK

B1: murine T-cadherin (full-length), over-expressed on cells (receptor)
chain: SIVVSPILIPENQRQPFPRDVGKVVDSDRPEGSKFRLTGKGVDQDPKGTFRINENTGSVSVTRTLDRETIATYQLYVETTDASGKTLEGPVPLEVIVIDQNDNRPIFREGPYIGHVMEGSPTGTTVMRMTAFDADDPATDNALWRYNIRQQTPDKPSPNMFYIDPEKGDIVTVVSPALLDRETLENPKYELIIEAQDMAGLDVGLTGTATATIVIDDKNDHSPKFTKKEFQARVEEGAVGVIVNLTVEDKDDPTTGAWRAAYTIINGNPGQSFEIHTNPQTNEGMLSVVKPLDYEISAFHTLLIKVENEDPLVPDVSYGPSSTATVHITVLDVNEGPVFYPDPMMVTKQENISVGSVLLTVNATDPDSLQHQTIRYSIYKDPAGWLSINPINGTVDTTAVLDRESPFVHNSVYTALFLAIDSGNPPATGTGTLLITLEDINDNAPVIYPTVAEVCDDARNLSVVILGASDKDLHPNTDPFKFEIHKQTVPDKVWKISKINNTHALVSLLQNLNKANYNLPIMVTDSGKPPMTNITDLKVQVCSCKNSKVDCNGAG
modifications: GPI anchor at the C-terminus (said of T-cadherin in general in the background)
notes: Expressed from the full-length cDNA in CHO, CHO-ER and Ba/F3 cells; also called pCDNA-Tcad; pBI-GFP-Tcad

How the values were obtained:
[1] = target: B1; test: cell ELISA on CHO-T-cadherin cells, anti-Flag M2 detection; concentration as trimer equivalents
Method: (§1) CHO-ER cell lines infected with the bicistronic retroviral construct pBI-GFP-Tcad (referred to as CHO-T-cadherin) and control cells infected with pBI-GFP (referred to as CHO-GFP) were each grown in 96 well plates. One day after plating (1.5×10⁴/well), the cells were incubated in serum-free media for one hour, placed at 4° C. for thirty minutes, and blocked in PBS++ containing 4% dried milk for thirty minutes. Bacterial expressed Flag-tagged globular-Acrp30 bacterial expressed Flag-tagged full-length, or purified trimeric or hexameric and HMW 5′Flag-Acrp30 produced in HEK cells were incubated with the cells for one hour in blocking buffer at the indicated concentrations. The HEK expressed polypeptides were produced and purified by ammonium sulfate precipitation and anion-exchange chromatography. Pools containing the trimeric or a combination of hexamer and HMW 5′Flag-Acrp30 were identified by native gel electrophoresis and immunoblotting with a Flag antibody. The purity of these preparations was judged to be approximately 50% by Coomassie PAGE analysis. Protein concentration was determined by BCA assay (Pierce). The concentration of purified bacterial expressed proteins was determined by the absorbance at 280 nm and the calculated extinction coefficient derived from the primary amino acid sequence (Protean; DNAStar). […] The absorbance at 450 nm was measured with a plate reader.

[2] = target: T1, bacterial-expressed 3'Flag-Acrp30 (full …); test: cell ELISA on CHO-T-cadherin cells, anti-Flag M2 detection
Method: as §1

Row | EC50 [1] [nM] | binding result [2] | Binder
1 | 25 to 50 | – | HEK produced hexameric and high-molecular weight 5'FlagAcrp30 (ligand, Pool of hexamers (6 chains) and HMW species (more than 6 chains), about 50% pure, made by ammonium sulfate precipitation and anion exchange; also called HEX & HMW; hexameric and HMW 5'Flag-Acrp30) DYKDDDDKEDDVTTTEELAPALVPPPKGTCAGWMAGIPGHPGHNGTPGRDGRDGTPGEKGEKGDAGLLGPKGETGDVGMTGAEGPRGFPGTPGRKGEPGEAAYMYRSAFSVGLETRVTVPNVPIRFTKIFYNQQNHYDGSTGKFYCNIPGLYYFSYHITVYMKDVKVSLFKKDKAVLFTYDQYQEKNVDQASGSVLLHLEVGDQVWLQVYGDGDHNGLYADNVNDSTFTGFLLYHDTN
2 | – | no binding | B1
